{
  "source": "patent US10696719B2",
  "about": "“Nucleoside triphosphate transporter and uses thereof” (THE SCRIPPS RESEARCH INSTITUTE, priority 2016, dated 2020)",
  "type_in_all_cases": "cell-based",
  "key": {"E. coli BL21(DE3) [1]": {"test_system": "E. coli BL21(DE3)", "protocol": "(§1) Unless otherwise stated, liquid bacterial cultures were grown in 2×YT (casein peptone 16 g/L, yeast extract 10 g/L, NaCl 5 g/L) supplemented with potassium phosphate (50 mM, pH 7), referred to hereafter as “media”, and incubated at 37° C. in a 48-well flat bottomed plate (CELLSTAR, Greiner Bio-One) with shaking at 200 rpm. Solid growth media was prepared with 2% agar. Antibiotics were used, as appropriate, at the following concentrations: carbenicillin, 100 μg/mL; streptomycin, 50 μg/mL; kanamycin, 50 μg/mL; zeocin, 50 μg/mL; chloramphenicol, 33 μg/mL for plasmids, 5 μg/mL for chromosomal integrants. All selective agents were purchased commercially. Cell growth, indicated as OD600, was measured using a Perkin Elmer Envision 2103 Multilabel Reader with a 590/20 nm filter.\n(§2) Doubling times for strains grown in the dATP uptake assay were calculated by doubling time as (t2−t1)/log2(OD600,2/OD600,1), averaging across three, ˜30 min time intervals roughly corresponding to 30 min prior to dATP uptake and 60 min during dATP uptake."}, "E. coli BL21(DE3) [2]": {"test_system": "E. coli BL21(DE3)", "experiment": "dATP uptake assay", "protocol": "(§3) Radioactive uptake assays were conducted as described in Haferkamp, et al., “Tapping the nucleotide pool of the host: novel nucleotide carrier proteins of Protochlamydia amoebophila,” Mol. Microbiol. 60, 1534-1545 (2006) with the following modifications: C41(DE3) and BL21(DE3) strains carrying plasmid-based transporters and their appropriate empty plasmid controls, as well as BL21(DE3) chromosomal transporter integrants and their appropriate isogenic transporter-less control, were grown overnight with appropriate antibiotics (streptomycin for pCDF plasmids and chloramphenicol for pSC plasmids and integrants) in 500 μL of media. Cultures were diluted to an OD600 of 0.02 in 500 μL of fresh media, grown for 2.5 h, induced with IPTG (0-1 mM, pCDF strains only) or grown (all other strains) for 1 h, and incubated with dATP spiked with [α-^32P]-dATP (final concentration=250 μM (0.5 μCi/mL)) for ˜1 h. […]\n(§4) Following incubation with dATP, 200 μL of each culture was collected through a 96-well 0.65 μm glass fiber filter plate (MultiScreen, EMD Millipore) under vacuum and washed with cold potassium phosphate (3×200 μL, 50 mM, pH 7) and cold ddH2O (1×200 μL). […] The resulting image was quantified by densitometric analysis using Image Studio Lite (LI-COR). […]"}, "E. coli C41(DE3) [3]": {"test_system": "E. coli C41(DE3)", "experiment": "dATP uptake assay", "protocol": "as §3, §4"}, "E. coli C41(DE3) [4]": {"test_system": "E. coli C41(DE3)", "experiment": "growth / toxicity of transporter expression", "protocol": "as §1, §2"}},
  "data": [
    {"molecule": "T7 RNAP: T7 RNA polymerase expressed in the E. coli (DE3) host strains", "values": [
      {"measurement": "toxicity of expression", "setting": "E. coli BL21(DE3) [1]", "value": "toxic"}
    ]},
    {"molecule": "PtNTT2(66-575): N-terminally truncated PtNTT2 variant, amino acids 1-65 removed, SEQ ID NO: 4 (protein, listed as Phaeodactylum tricornutum) MGGSTVAPTTPLATGGALRKVRQAVFPIYGNQEVTKFLLIGSIKFFIILALTLTRDTKDTLIVTQCGAEAIAFLKIYGVLPAATAFIALYSKMSNAMGKKMLFYSTCIPFFTFFGLFDVFIYPNAERLHPSLEAVQAILPGGAASGGMAVLAKIATHWTSALFYVMAEIYSSVSVGLLFWQFANDVVNVDQAKRFYPLFAQMSGLAPVLAGQYVVRFASKAVNFEASMHRLTAAVTFAGIMICIFYQLSSSYVERTESAKPAADNEQSIKPKKKKPKMSMVESGKFLASSQYLRLIAMLVLGYGLSINFTEIMWKSLVKKQYPDPLDYQRFMGNFSSAVGLSTCIVIFFGVHVIRLLGWKVGALATPGIMAILALPFFACILLGLDSPARLEIAVIFGTIQSLLSKTSKYALFDPTTQMAYIPLDDESKVKGKAAIDVLGSRIGKSGGSLIQQGLVFVFGNIINAAPVVGVVYYSVLVAWMSAAGRLSGLFQAQTEMDKADKMEAKTNKEK", "values": [
      {"measurement": "uptake of [α-32P]-dATP", "setting": "E. coli BL21(DE3) [2]", "value": "increased levels"},
      {"measurement": "uptake of [α-32P]-dATP", "setting": "E. coli C41(DE3) [3]", "value": "reduced uptake"},
      {"measurement": "toxicity of expression", "setting": "E. coli C41(DE3) [4]", "value": "lower toxicity relative to the full length PtNTT2"},
      {"measurement": "toxicity of expression", "setting": "E. coli BL21(DE3) [1]", "value": "little increase in toxicity"}
    ]},
    {"molecule": "PtNTT2: nucleoside triphosphate transporter from Phaeodactylum tricornutum, full length, SEQ ID NO: 1 (protein, listed as Phaeodactylum tricornutum) MRPYPTIALISVFLSAATRISATSSHQASALPVKKGTHVPDSPKLSKLYIMAKTKSVSSSFDPPRGGSTVAPTTPLATGGALRKVRQAVFPIYGNQEVTKFLLIGSIKFFIILALTLTRDTKDTLIVTQCGAEAIAFLKIYGVLPAATAFIALYSKMSNAMGKKMLFYSTCIPFFTFFGLFDVFIYPNAERLHPSLEAVQAILPGGAASGGMAVLAKIATHWTSALFYVMAEIYSSVSVGLLFWQFANDVVNVDQAKRFYPLFAQMSGLAPVLAGQYVVRFASKAVNFEASMHRLTAAVTFAGIMICIFYQLSSSYVERTESAKPAADNEQSIKPKKKKPKMSMVESGKFLASSQYLRLIAMLVLGYGLSINFTEIMWKSLVKKQYPDPLDYQRFMGNFSSAVGLSTCIVIFFGVHVIRLLGWKVGALATPGIMAILALPFFACILLGLDSPARLEIAVIFGTIQSLLSKTSKYALFDPTTQMAYIPLDDESKVKGKAAIDVLGSRIGKSGGSLIQQGLVFVFGNIINAAPVVGVVYYSVLVAWMSAAGRLSGLFQAQTEMDKADKMEAKTNKEK", "values": [
      {"measurement": "toxicity of expression", "setting": "E. coli C41(DE3) [4]", "value": "toxic"}
    ]}
  ]
}
